Reference: US20170174769A1 (Regeneron, published 2017)
Read-outs that look alike come from different tables or passages of the source. One block for each binder: values may come before it.

What was measured:
[1] = molecular target: T1, human KLB and human FGFR1c co-expressed on HEK293/hKLB/hFGFR1c/SRE-luc cells (human, UniProt Q86Z14 1-1044; P11362 22-822); assay: cell-based or functional assay
[2] = molecular target: T1, human KLB and human FGFR1c co-expressed …; assay: cell-based or functional assay; remark: listed apart in the source
[3] = molecular target: T1, human KLB and human FGFR1c co-expressed …; assay: cell-based or functional assay; remark: listed apart in the source
[4] = molecular target: M. fascicularis KLB and human FGFR1c co-expressed on HEK293/MfKLB/hFGFR1c/SRE-Luc cells (M. fascicularis; human, UniProt A0A2K5WB58 1-1044); assay: cell-based or functional assay
[5] = molecular target: T2, extracellular domain of human KLB expressed with C-terminal HA and hexahistidine tags (human, UniProt Q86Z14 1-996); assay: SPR, mAb captured, 37 C
T2 construct: also called hKLB-HA-6His; hKLB-HA-6his
T2 sequence: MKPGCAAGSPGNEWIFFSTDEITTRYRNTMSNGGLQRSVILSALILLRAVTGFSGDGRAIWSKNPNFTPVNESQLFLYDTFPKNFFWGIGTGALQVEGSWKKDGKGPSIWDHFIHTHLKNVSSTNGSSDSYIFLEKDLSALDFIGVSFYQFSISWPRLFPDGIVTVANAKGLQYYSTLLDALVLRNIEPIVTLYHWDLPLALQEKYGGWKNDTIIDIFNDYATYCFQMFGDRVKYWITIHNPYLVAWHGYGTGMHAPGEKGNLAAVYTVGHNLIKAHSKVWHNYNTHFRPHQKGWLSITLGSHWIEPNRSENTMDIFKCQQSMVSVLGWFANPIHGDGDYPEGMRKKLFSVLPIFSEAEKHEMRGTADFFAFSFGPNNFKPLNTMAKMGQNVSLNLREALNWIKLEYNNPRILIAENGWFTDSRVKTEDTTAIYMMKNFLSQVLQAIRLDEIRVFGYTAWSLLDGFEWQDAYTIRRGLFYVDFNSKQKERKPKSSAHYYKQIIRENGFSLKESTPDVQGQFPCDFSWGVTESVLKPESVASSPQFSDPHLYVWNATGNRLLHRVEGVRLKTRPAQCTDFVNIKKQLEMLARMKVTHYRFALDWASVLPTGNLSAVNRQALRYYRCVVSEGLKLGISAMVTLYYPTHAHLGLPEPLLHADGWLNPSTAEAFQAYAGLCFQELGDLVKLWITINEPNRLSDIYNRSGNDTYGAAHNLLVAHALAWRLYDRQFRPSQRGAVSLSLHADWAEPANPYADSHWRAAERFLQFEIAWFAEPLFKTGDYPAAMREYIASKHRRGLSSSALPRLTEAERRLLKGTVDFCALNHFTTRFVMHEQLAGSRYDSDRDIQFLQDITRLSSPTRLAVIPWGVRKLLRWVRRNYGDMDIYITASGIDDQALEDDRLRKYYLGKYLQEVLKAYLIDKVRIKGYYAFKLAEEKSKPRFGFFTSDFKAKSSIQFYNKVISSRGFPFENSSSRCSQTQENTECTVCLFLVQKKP
How it was run: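 First, an anti-mouse or anti-human Fc antibody is amine-coupled to the chip. Next, the mAb is captured, then soluble tagged receptor associates for 3.5 to 4 minutes and dissociates 8-12 minutes in HBST buffer. Finally, 1:1 fitting gives ka and kd.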

[6] = molecular target: T3, extracellular domain of human FGFR1c expressed with C-terminal V5 and hexahistidine tags (human, UniProt P11362 22-376); assay: SPR, mAb captured, 37 C
T3 construct: also called hFGFR1c-V5-6His
T3 sequence: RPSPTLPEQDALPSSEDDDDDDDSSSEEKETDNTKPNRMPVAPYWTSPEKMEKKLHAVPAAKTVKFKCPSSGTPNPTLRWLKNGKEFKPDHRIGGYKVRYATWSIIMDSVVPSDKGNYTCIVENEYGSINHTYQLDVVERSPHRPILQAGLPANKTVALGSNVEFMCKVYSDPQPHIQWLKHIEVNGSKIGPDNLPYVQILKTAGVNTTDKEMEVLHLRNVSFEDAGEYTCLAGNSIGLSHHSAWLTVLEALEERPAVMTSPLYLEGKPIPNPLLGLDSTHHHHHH
How it was run: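 Anti-KLB/FGFR1c mAbs were captured on amine-coupled rabbit anti-mouse or mouse anti-human Fc surfaces, per antibody Fc. Analyte flowed in HEPES pH 7.4, 0.15M NaCl, 3mM EDTA, 0.05% P20; association monitored 3.5 to 4 minutes, dissociation 8-12 minutes.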

[7] = molecular target: cell-surface human FGFR1c (amino acids 1-731 of NP_075594) with cell-surface human KLB on … (human, UniProt P11362 22-822); assay: cell-based or functional assay
[8] = molecular target: mouse KLB and mouse FGFR1c co-expressed on HEK293/mKLB/mFGFR1c/SRE-Luc cells (mouse); assay: cell-based or functional assay

Sequence of cell-surface human FGFR1c (amino acids 1-731 of NP_075594) with cell-surface human KLB on … (P11362 22-822): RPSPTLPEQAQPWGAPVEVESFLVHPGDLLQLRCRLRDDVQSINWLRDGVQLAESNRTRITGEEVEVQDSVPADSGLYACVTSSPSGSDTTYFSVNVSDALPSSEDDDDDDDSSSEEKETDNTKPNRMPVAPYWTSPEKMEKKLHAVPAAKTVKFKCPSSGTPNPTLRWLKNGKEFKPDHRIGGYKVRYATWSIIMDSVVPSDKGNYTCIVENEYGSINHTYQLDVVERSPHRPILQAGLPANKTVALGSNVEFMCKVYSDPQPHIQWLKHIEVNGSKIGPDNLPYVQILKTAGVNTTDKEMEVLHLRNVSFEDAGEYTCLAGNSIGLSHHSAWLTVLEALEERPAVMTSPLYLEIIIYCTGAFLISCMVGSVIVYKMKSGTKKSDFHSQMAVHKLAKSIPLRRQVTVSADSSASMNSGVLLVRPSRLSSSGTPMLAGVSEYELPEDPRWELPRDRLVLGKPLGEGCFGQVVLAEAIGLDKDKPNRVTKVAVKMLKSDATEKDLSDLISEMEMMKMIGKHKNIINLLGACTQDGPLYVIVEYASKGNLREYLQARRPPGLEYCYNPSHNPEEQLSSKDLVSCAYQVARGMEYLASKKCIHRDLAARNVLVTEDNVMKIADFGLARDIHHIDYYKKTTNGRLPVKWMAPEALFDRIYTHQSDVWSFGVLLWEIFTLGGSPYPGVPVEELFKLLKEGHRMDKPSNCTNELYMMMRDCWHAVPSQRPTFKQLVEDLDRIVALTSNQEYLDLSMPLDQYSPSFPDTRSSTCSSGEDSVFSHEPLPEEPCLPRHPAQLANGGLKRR
Sequence of M. fascicularis KLB and human FGFR1c co-expressed on HEK293/MfKLB/hFGFR1c/SRE-Luc cells (chain, as listed by the source, chain 1 of 2): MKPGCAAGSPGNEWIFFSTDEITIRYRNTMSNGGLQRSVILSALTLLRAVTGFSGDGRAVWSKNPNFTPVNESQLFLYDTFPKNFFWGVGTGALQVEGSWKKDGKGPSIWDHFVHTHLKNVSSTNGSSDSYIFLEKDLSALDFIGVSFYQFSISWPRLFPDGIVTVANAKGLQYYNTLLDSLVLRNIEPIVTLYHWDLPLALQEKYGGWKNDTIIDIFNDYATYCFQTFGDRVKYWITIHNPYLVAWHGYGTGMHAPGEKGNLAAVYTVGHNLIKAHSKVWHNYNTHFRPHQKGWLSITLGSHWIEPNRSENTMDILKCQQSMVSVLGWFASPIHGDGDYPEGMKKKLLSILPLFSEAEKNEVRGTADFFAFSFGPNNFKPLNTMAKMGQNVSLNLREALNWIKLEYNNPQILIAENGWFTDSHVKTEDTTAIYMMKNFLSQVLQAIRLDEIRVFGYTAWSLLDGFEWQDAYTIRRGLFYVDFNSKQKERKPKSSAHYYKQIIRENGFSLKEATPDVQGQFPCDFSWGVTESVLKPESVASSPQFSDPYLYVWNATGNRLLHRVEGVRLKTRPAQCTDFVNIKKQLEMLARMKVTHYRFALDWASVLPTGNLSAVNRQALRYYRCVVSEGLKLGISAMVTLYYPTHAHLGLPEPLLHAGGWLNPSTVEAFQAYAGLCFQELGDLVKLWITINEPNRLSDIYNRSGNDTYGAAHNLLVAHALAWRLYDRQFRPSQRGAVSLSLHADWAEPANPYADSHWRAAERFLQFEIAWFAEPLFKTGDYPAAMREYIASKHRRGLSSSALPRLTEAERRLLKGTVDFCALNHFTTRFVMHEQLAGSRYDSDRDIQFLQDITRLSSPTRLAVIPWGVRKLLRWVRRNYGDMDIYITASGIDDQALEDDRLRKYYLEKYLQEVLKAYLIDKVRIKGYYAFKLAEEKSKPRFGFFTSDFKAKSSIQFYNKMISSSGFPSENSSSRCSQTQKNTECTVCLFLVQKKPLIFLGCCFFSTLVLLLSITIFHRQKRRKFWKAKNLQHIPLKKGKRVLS
Sequence of M. fascicularis KLB and human FGFR1c co-expressed on HEK293/MfKLB/hFGFR1c/SRE-Luc cells (chain, as listed by the source, chain 2 of 2): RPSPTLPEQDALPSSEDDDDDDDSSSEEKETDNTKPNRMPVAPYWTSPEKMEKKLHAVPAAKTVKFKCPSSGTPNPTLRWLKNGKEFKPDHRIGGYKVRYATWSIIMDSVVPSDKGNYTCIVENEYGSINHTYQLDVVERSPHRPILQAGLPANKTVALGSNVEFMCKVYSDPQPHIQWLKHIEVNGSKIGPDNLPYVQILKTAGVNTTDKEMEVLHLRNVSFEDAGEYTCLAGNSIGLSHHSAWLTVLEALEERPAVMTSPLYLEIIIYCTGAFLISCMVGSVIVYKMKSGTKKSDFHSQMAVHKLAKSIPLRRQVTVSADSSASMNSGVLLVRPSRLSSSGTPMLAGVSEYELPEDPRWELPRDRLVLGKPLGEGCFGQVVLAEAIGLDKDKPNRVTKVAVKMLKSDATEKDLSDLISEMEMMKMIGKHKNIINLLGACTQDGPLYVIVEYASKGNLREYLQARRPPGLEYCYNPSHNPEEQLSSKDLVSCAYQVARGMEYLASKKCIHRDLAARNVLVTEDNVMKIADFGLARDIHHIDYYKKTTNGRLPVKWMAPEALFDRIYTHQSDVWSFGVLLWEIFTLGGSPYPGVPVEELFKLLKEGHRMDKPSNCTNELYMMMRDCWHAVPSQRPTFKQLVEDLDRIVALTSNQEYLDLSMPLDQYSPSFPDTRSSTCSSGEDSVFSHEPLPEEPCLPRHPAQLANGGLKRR

EC50, SRE-luc activation without ligand [1]: 0.2 nM
Maximum Activation (%) without ligand [1]: 1%
EC50, SRE-luc activation without ligand [2]: 0.29 nM
IC50, inhibition of 1 nM 6His-hFGF21 [2]: 0.19 nM
Maximum Activation (%) [2]: 0.6%
Maximum Inhibition (%) [2]: 74%
IC50, inhibition of 1 nM hFGF21 [3]: 0.12 nM
Maximum Inhibition (%) of 1 nM hFGF21 [3]: 50%
IC50, inhibition of 10 nM mfFGF21 [4]: 0.22 nM
Maximum Inhibition (%) of 10 nM mfFGF21 [4]: 18%
20 nM hKLB-HA-6His Bind (RU) [5]: 93.6 RU
Kd [5]: 0.412 nM
koff [5]: 8e-05 s⁻¹
kon [5]: 194000 M⁻¹ s⁻¹
t1/2 [5]: 2.41 h
180 nM hFGFR1c-V5-6His Bind (RU) [6]: 0.5 RU
% Activation [7]: 0.8%
EC50, SRE-luc activation [7]: 0.15 nM
B1: H2aM8092N (antibody, V domains shown)
VH: QVQLQESGPGLVKPSETLSLTCTVSGGSISSYYWSWIRQPPGKGLDWIGHIYYSGTTYYNPSLKSRVSISLDTSKNQFSLKLSSVTAADTAVYYCARHLRGYSSGREFDYWGQGTLVTVSS
VL: DIQMTQSPSSLSASVGGRVSLTCRASQSIFSYLNWYQQKPGKAPKLLIYAASNLQSGVPSRFSGSGSGTDFTLTISSLQPEDFATYSCQQSYNIPYTFGQGTKLEIK
notes: mouse IgG2 Fc (H2aM prefix); also called H2M8092N

EC50, SRE-luc activation without ligand [1]: 17 nM
Maximum Activation (%) without ligand [1]: 2%
IC50, inhibition of 1 nM 6His-hFGF21 [2]: 2.2 nM
Maximum Inhibition (%) [2]: 36%
IC50, inhibition of 1 nM hFGF21 [3]: 4.5 nM
Maximum Inhibition (%) of 1 nM hFGF21 [3]: 41%
20 nM hKLB-HA-6His Bind (RU) [5]: 2.6 RU
180 nM hFGFR1c-V5-6His Bind (RU) [6]: 1.6 RU
% Activation [7]: 1.4%
EC50, SRE-luc activation [7]: > 10 nM
B2: H1H8900P (antibody, V domains shown)
VH: QVQLVESGGGVVQPGRSLRLSCVASGFTFSSYGMHWVRQAPGKGLEWVAVISFDGSNKYYADSVKGRFTISRDNSKNTLYLQMNSLRPADTAVYYCAKDRSNYYYFGMDVWGQGTTVTVSS
VL: DIVMTQTPLSLPVTPGEPASISCRSSQSLLDSDDGNTYLDWYLQKPGQSPQLLIYTLSYRASGVPDRFSGSGSGTDFTLKISRVEAEDVGVYYCMQRIEFPLTFGGGTKVEIK
notes: H1H Fc prefix (human Fc)

EC50, SRE-luc activation without ligand [1]: 8.9 nM
Maximum Activation (%) without ligand [1]: 3%
IC50, inhibition of 1 nM hFGF21 [3]: 2 nM
Maximum Inhibition (%) of 1 nM hFGF21 [3]: 97%
IC50, inhibition of 10 nM mfFGF21 [4]: 12 nM
Maximum Inhibition (%) of 10 nM mfFGF21 [4]: 97%
Maximum Activation (%) without ligand [8]: 2%
Maximum Inhibition (%) of 0.8 nM mFGF21 [8]: 29%
20 nM hKLB-HA-6His Bind (RU) [5]: -1.9 RU
180 nM hFGFR1c-V5-6His Bind (RU) [6]: 0.4 RU
B3: H1H8898P (antibody, V domains shown)
VH: QVQLVESGGGLVKPGGSLRLSCAASGFIFSDYYMSWIRQAPGKGLDWISYISPSGSTIYYADSVKGRFTISRDNAKNSLYLQMNSLRADDTAVYYCARTGIQLWSVYFDYWGQGTLVTVSS
VL: EIVMTQSPATLSVSPGERATLSCRASQSVGSNLAWYQQKPGQAPRLLIYGASTRANGIPARFSGSGSGTEFTLTISGLQSEDFAVYYCQQYNNWPTFGQGTKLEIK
notes: H1H Fc prefix (human Fc)
